Measured values reported in patent US20220340678A1 (MURAL ONCOLOGY, published 2022).

Tests used:
[1] = target: T1, histidine-tagged human uPAR (Sino#10925-H08H) (human, UniProt Q03405 23-303); assay: BLI (Octet), antibody on anti-mouse Fc sensor, uPAR in solution
T1 construct: also called uPAR-His

[2] = target: T2, human uPAR expressed on HEK293 cells (human, UniProt Q03405 23-305); assay: flow cytometry, HEK293 cells expressing human uPAR, 100 nM uPA present
T2 construct: whole, on cells; also called Hu-uPAR

[3] = target: T3, biotinylated human uPAR (human, UniProt Q03405 23-303, limits assumed, biotinylated (site not stated)); assay: BLI (Octet) competition on biotinylated human uPAR; competitor (first antibody): M1
[4] = target: T3, biotinylated human uPAR; assay: BLI (Octet) competition on biotinylated human uPAR; competitor (first antibody): M5
[5] = target: T1, histidine-tagged human uPAR …; assay: BLI (Octet), uPAR on sensor, antibody in solution (avidity)
[6] = target: T3, biotinylated human uPAR; assay: BLI (Octet) on biotinylated human uPAR; row 'None': no first antibody
[7] = target: T3, biotinylated human uPAR; assay: BLI (Octet) competition on biotinylated human uPAR; competitor (first antibody): ATN-368 (ATN-658)
[8] = target: Human uPAR DII-DIII domain HisAvi Tag (human, biotinylated (site not stated)); assay: BLI (Octet), biotinylated domain on SA sensor, antibody 200 nM
[9] = target: T4, Human uPAR DIII domain HisAvi Tag (human, biotinylated (site not stated)); assay: as above
T4 chain: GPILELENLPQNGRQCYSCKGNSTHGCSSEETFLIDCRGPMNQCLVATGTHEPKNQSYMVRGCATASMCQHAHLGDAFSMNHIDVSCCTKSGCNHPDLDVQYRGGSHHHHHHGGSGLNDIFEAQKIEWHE

[10] = target: T5, Recombinant mouse uPAR-Fc (R&D Systems, Cat. No. 531-PA-100) (mouse, UniProt P35456 24-297, limits assumed); assay: SPR (Biacore), mouse uPAR-Fc captured on chip; Table 32 prints 0.15
T5 construct: not shown: Fc of the bought fusion (captured with the human antibody capture kit); not described
T5 sequence (looked up): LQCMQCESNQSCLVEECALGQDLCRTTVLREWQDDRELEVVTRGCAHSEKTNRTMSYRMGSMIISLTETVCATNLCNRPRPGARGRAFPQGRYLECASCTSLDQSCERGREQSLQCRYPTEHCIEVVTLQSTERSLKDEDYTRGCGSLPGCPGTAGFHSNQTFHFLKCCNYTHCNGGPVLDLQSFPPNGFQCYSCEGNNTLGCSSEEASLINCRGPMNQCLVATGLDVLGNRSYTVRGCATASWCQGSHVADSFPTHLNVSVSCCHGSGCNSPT

[11] = target: T5, Recombinant mouse uPAR-Fc (R&D Systems, …); assay: SPR (Biacore), mouse uPAR-Fc captured on anti-human antibody chip
[12] = target: T6, mouse uPAR on cells (mouse, UniProt P35456 24-298); assay: flow cytometry on CT26 cells (express mouse uPAR), anti-His detection
T6 construct: whole, on cells; also called Ms-uPAR; mouse uPAR (CD87)
T6 sequence (looked up): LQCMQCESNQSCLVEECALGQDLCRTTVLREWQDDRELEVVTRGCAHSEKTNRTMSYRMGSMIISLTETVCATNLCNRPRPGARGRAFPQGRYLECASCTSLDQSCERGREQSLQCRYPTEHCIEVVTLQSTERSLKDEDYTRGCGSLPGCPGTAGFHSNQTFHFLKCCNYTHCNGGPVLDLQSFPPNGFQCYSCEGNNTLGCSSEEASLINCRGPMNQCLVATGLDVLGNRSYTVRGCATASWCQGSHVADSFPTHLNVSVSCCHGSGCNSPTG

[13] = target: T6, mouse uPAR on cells; assay: flow cytometry on 4T1 cells (express mouse uPAR), anti-His detection
[14] = target: IL-2/IL-15 receptor on primary mouse splenocytes (mouse); assay: cell-based or functional assay
[15] = target: T6, mouse uPAR on cells; assay: flow cytometry on MC38 cells (express mouse uPAR), anti-His detection
[16] = target: T6, mouse uPAR on cells; assay: flow cytometry on EMT6 cells (express mouse uPAR), anti-His detection

B1: M1 (antibody, V domains shown)
VH: EVQLQQSGAELVRPGASVKLSCTASGFNIKDEYINWVKQRPEQGLEWIGWIDPENGDTEYASKFQGKATITADTSSNTAYLQLSSLTSEDTAVYYCTGGNYVGWFPYWGQGTLVTVSA
VL: QIVLTQSPAIMSASPGEKVTMTCSASSSVSYMHWYQQKSGTSPKRWLYDTSKLASGVPARFSGSGSGTSYSLTISSMEAEDAATYYCQQWSSNPPYTFGGGTKLEIK
notes: Mouse hybridoma antibody; also called anti-uPAR antibody M1; parental M1
Question: How did the Kd [1] turn out when B1 was run?
Answer: 0.511 nM

Question: And the koff [1]?
Answer: 0.00034 s⁻¹

Question: And the kon [1]?
Answer: 664000 M⁻¹ s⁻¹

Question: And the EC50 [2]?
Answer: 0.66 nM

Question: What about the “response in competition assay” value [3] of the same binder?
Answer: -0.0441

Question: And the “response in competition assay” value [4]?
Answer: 0.365

Question: What about the Kd [5] of the same binder?
Answer: < 0.001 nM

Question: And the koff [5]?
Answer: < 1e-07 s⁻¹

Question: And the kon [5]?
Answer: 448000 M⁻¹ s⁻¹

Question: And the “response in competition assay” value [6]?
Answer: 0.305

Question: What about the “response in competition assay” value [7] of the same binder?
Answer: -0.0232

Question: Does B1 bind [8]?
Answer: binds

Question: Does B1 bind [9]?
Answer: binds

B2: Mouse uPA-ATF His6 (ligand)
chain: GSVLGAPDESNCGCQNGGVCVSYKYFSRIRRCSCPRKFQGEHCEIDASKTCYHGNGDSYRGKANTDTKGRPCLAWNAPAVLQKPYNAHRPDAISLGLGKHNYCRNPDNQKRPWCYVQIGLRQFVQECMVHDCHHHHHH
notes: also called 104
Question: For B2, which Kd [10] is on record?
Answer: 0.14 nM

Question: What about the Kd [11] of the same binder?
Answer: 0.15 nM

Question: What about the koff [11] of the same binder?
Answer: 0.00032 s⁻¹

Question: And the kon [11]?
Answer: 2.2e+06 M⁻¹ s⁻¹

B3: Mouse cpIL-2:IL-2Ra:mouse uPA-ATF-His6 (other)
chain: SKSFQLEDAENFISNIRVTVVKLKGSDNTFECQFDDESATVVDFLRRWIAFCQSIISTSPQGGSSSTQQQQQHLEQLLMDLQELLSRMENYRNLKLPRMLTFKFYLPKQATELKDLQCLEDELGPLRHVLDLTQGSGGGSELCLYDPPEVPNATFKALSYKNGTILNCECKRGFRRLKELVYMRCLGNSWSSNCQCTSNSHDKSRKQVTAQLEHQKEQQTTTDMQKPTQSMHQENLTGHCREPPPWKHEDSKRIYHFVEGQSVHYECIPGYKALQRGPAISICKMKCGKTGWTQPQLTCVDGGSGGGSVLGAPDESNCGCQNGGVCVSYKYFSRIRRCSCPRKFQGEHCEIDASKTCYHGNGDSYRGKANTDTKGRPCLAWNAPAVLQKPYNAHRPDAISLGLGKHNYCRNPDNQKRPWCYVQIGLRQFVQECMVHDCHHHHHH
notes: also called 101
Question: Which results are given for B3?
Answer: EC50 [12]: 1.3 nM; EC50 [13]: 1 nM; pSTAT5 EC50, mouse NK cells [14]: 20 nM; pSTAT5 EC50, mouse Tregs [14]: 17 nM; pSTAT5 EC50, mouse memory CD8 T cells [14]: 27 nM; Kd [11]: 0.19 nM; koff [11]: 0.00026 s⁻¹; kon [11]: 1.3e+06 M⁻¹ s⁻¹; EC50 [15]: 0.71 nM; EC50 [16]: 0.41 nM
